These results are taken from patent US20150182631A1, “SYSTEM FOR […]-BASED ACTIVE INGREDIENTS” (Centre National De La Recherche Scientifique-CNRS, priority 2012, published 2015).

Numbering of substitutions follows the chain as printed. In names and notes the source's numbering stands.

Data set [1] concerns the molecule itself. Nature of the data set: isothermal titration calorimetry, dilution of concentrated XCL into buffer; tetramer-dimer equilibrium; tetramer-dimer equilibrium of XCL by dilution ITC. The method, then: In order to accurately measure the equilibrium constant of tetramerisation and also determine the thermodynamics of the tetramerisation of XCL, the inventors used isothermal titration calorimetry (Burrows et al., (1994) Lovatt et al., (1996) Barranco-Medina et al. (2009)). In this method, a concentrated solution of XCL was diluted in a buffer, and the dissociation heat of the dimers (or of the monomers) was measured. The quantity of heat released for each injection is governed by the enthalpy exchange from the tetramer to the dimer and the tetramer-dimer equilibrium constant.
On the technique in general: ITC needs no label: the signal is the heat of the interaction.

The nature of data set [2]: Confinement of fluorescein in the lectin cavity. The following applies: 4 days at ambient temperature, free fluorescein eliminated again. The method, then:
The confinement experiments are carried out by incubating the wild-type protein (XCL) or the mutants (A38C) with the molecule to be tested. In order to carry out the control experiments with the mutant A38C, an oxidation step is carried out in the presence of GSSG in a phosphate buffer 50 mM, 100 mM NaCl, pH 7.2, OVN. The GSSG is then eliminated on a PD-10 sephadex G-25M column (GE Healthcare) pre-balanced in a phosphate buffer 50 mM, 100 mM NaCl, pH 8.5. The eluate is concentred at 1 ml on Vivaspin 15R 30,000 MWCO (Sartorius stedim). A batch of A38C is reduced to TCEP (under argon) with adding of NaOH for a final pH of 8.5. […] The quantity of fluorescein is measured by using an absorption coefficient of e511 nm=75,000 cm^−1 M^−1. The concentrations of XCL and of A38C after the confinement are calculated with e278 nm=[…]. The percentage of confinement is calculated by forming the ratio of the fluorescein/protein concentrations.
In the case with XCL, the inventors incubated the protein (15 μM) with fluorescein (10 mM) and then separated the protein from the non-confined molecules of fluorescein by two successive gel filtration columns. Beforehand, the inventors verified that if these two columns on the fluorescein solution are carried out at 10 mM, no residual free fluorescein is detected. […]

Data set [3] can be described thus: Chemical dissociation by size exclusion chromatography at acidic pH. In kind it is physicochemical. As for the experimental part: The size exclusion chromatography experiments were carried out on a GE-Healthcare Superose 12 PC 3.2/30 column. The columns are pre-balanced in the buffer tested, namely phosphate buffer 50 mM, 100 mM NaCl, pH7.2 or pH 4.4 in the absence or in the presence of 0.003% of SDS. The flow rate is 0.5 mL/min. The BSA and the RNase A are used as a size marker.
The inventors studied the behaviour of XCL in denaturing chemical conditions close to those encountered in the lysosomes. The analysis was carried out via exclusion chromatography with an acidic pH (pH 4.4). It appears that the elution peak of XCL in these denaturing conditions is displaced to greater elution volumes showing the appearance of a smaller size. When 0.003% SDS is added, the elution peak is displaced to the elution volume of the RNAse A which has a molecular weight close to the XCL monomer.
The behaviour of the oxidised mutant A38C was also analysed. […] The addition of the disulphide bridge therefore increases the stability of the protein assembly.
For orientation: SEC sorts molecules by how far they enter the pores of the column.

Data set [4] can be described thus: Balanced FRET, exchange of monomers. In kind it is physicochemical. The following applies: 1 h incubation, pH 8.5. The method, then:
Fluorescence energy transfer was used to reveal the exchange of the XCL monomers. The exchange reaction is initiated by mixing the same volume of XCL-RITC (1 μM or only the buffer as a reference) and of XCL-FITC (1 μM) at 25° C. in 50 mM of phosphate buffer, 100 mM NaCl, pH 8.5. After one hour of incubation, the emission spectrum of the sample excited at 490 nm is recorded by spectrofluorimetry (Photon Technology International QM-4). The same experiments were carried out with A38C-RITC and A38C-FITC.
The oligomerization balance of the XCL protein was characterised by the measurement of the appearance of resonance energy transfer of the Förster type (FRET) between two populations of XCL labelled separately either with FITC (Fluorescein IsoThioCyanate) or with RITC (Rhodamine IsoThioCyanate).
In this same figure, is also shown the spectrum obtained by mixing the labelled protein, either by the donor or by the acceptor (dotted line curve). This spectrum was deconvoluted, which gives the spectra shown as a dotted line in FIG. 2A.
For the purposes of comparison, the same experiment was carried out with the variant A38C. This variant is covalently bonded by two additional disulphide bridges. A perfectly superimposable spectrum was obtained after mixing donor and acceptor labelled proteins and incubation of this mixture for 1 h at ambient temperature (dotted lines of FIG. 3B).

Data set [5] can be described thus: SDS-PAGE of tetramer and disulphide bridge stability. The following applies: reduced glutathione 10 mM in oxidation buffer. In kind it is physicochemical. As for the experimental part:
The clone A38C was obtained by directed mutagenesis by using the XCL plasmid as a matrix and the protein produced and purified by using the same protocol as that used to produce XCL (Trigueros et al. (2003)). A yield of 25 mg of purified protein per litre of culture was obtained. The last part of the protocol consisted in a step of oxidation for 12 hours in the presence of 10 mM of oxidised glutathione. This step is required in order to produce disulphide bridges between the monomers. The forming of these covalent bonds was verified by SDS-PAGE. Two SDS-PAGE were prepared. Beta-mercaptoethanol was added to the samples in the first gel while beta-mercaptoethanol was not added to the second gel. When XCL is heated to 95° C. 5 min before the deposit, a single band is observed with a molecular weight slightly greater than 20 kDa on the two gels. This band corresponds to the species in monomer form.
A variant T12C was produced in the same manner as A38C by directed mutagenesis by using the XCL plasmid as a matrix. By using the same protocol, 10 mg of protein per litre of culture were produced. The oxidation rate of the variant T12C was sought by using the same method by SDS-PAGE as for A38C. These rates were compared with those obtained with the variant A38C. Several oxidative conditions were tested with different concentrations of reduced glutathione. […]

In data set [6] the target is T1, XCL labelled with RITC (Xerocomus chrysenteron, RITC on surface epsilon-amino groups, 0.9 mol of RITC per mol of XCL).
T1 construct: FRET acceptor population of XCL; also called RITC-XCL; XCL-RITC
T1 chain: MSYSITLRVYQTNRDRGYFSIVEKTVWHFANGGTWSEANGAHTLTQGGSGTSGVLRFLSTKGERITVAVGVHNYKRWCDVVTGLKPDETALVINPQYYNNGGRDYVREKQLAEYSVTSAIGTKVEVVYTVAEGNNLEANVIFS
The experiment in a line: FRET kinetics at 580 nm after mixing XCL-FITC and XCL-RITC, double exponential fit; slow dissociation of the tetramer (proportion a=0.39); k1, slower of the two dissociation pathways of the tetramer. As for the experimental part:
(§1) The speed of the exchange of subunits was measured by the same technique. The reaction is initiated by mixing the same volume of XCL-RITC (1 μM) and of XCL-FITC (1 μM) at 25° C. in 50 mM of phosphate buffer, 100 mM NaCl, pH 8.5. The excitation is carried out at 468 nm and the fluorescence emission at 580 nm is recorded every 0.5 seconds. The fluorescence intensity is normalised by using the equation: […]

For data set [7], the target named is T1, XCL labelled with RITC. The experiment in a line: FRET kinetics at 580 nm after mixing XCL-FITC and XCL-RITC, double exponential fit; fast dissociation of the tetramer; k2, faster of the two dissociation pathways of the tetramer. As for the experimental part: as §1
Data set [8] deals with the molecule itself. Nature of the data set: size exclusion chromatography at pH 7.2 and pH 4.4; tetramer kept. The method, then:
The behaviour of the oxidised mutant A38C was also analysed. […] When the pH is decreased to 4.4, no modification in the elution volume is observed. The addition of the disulphide bridge therefore increases the stability of the protein assembly. The adding of 0.003% SDS leads to the dissociation of the tetramer into dimers, constituted of monomers bonded together by the disulphide bridge.

B1: Xerocomus chrysenteron lectin (XCL) (other)
chain: T1 chain
notes: Recombinant fungal lectin, a homotetramer in solution; also called wild-type protein; native XCL protein
B1 showed a Kd in data set [1] of 4.5 µM.

B2: A38C: XCL variant with alanine 38 replaced by cysteine, SEQ ID NO: 2; A38R reduced before confinement, A38NR not reduced, A38Cox oxidised (protein)
chain: T1 chain with A38C
modifications: Variant A38C
notes: A38R reduced before confinement, A38NR not reduced, A38Cox oxidised
As to B2, in data set [2], the “confinement rate after incubation” value was “remained unchanged”. In addition, the “oligomeric state by elution volume at pH 4.4 with SDS” value in data set [3] (pH 4.4, 0.003% SDS) was “dissociation of the tetramer into dimers”. Moreover, in data set [3] (pH 4.4, no SDS), the “oligomeric state by elution volume at pH 4.4” value is given as “no modification in the elution volume is observed”. The “FRET between FITC- and RITC-labelled protein after mixing (monomer redistribution)” value in data set [4] is “no FRET is observed”.

B3: T12C: XCL variant with threonine 12 replaced by cysteine, SEQ ID NO: 3 (protein)
chain: T1 chain with T12C
modifications: Variant T12C
Take B3: the “stability of the additional disulphide bridge” value in data set [5] is recorded as “less stable than the disulphide bridge of A38C”.

B4: XCL labelled with FITC (other)
chain: T1 chain
modifications: FITC on surface epsilon-amino groups, 4 mol of FITC per mol of XCL
notes: FRET donor population of XCL; also called FITC-XCL; XCL-FITC
Turning to B4, the koff with XCL labelled with RITC [6] came out at 0.012 s⁻¹; with XCL labelled with RITC [7], 0.042 s⁻¹.

B5: XCL variant A38C, oxidised (other)
chain: T1 chain with A38C
modifications: interchain disulphide bridge between Cys 38 of opposite monomers (oxidised with GSSG)
notes: Homotetramer with two added disulphide bridges that link monomers diagonally; In the FRET experiment it was labelled with FITC or RITC; also called mutant A38C; oxidised mutant A38C
In the case of B5, in data set [8], the binding result is reported as “binds”.

The term Kd denotes the free concentration of one partner at which half of the binding sites on the other are occupied at equilibrium, for simple one-to-one binding. The term koff denotes the first-order rate constant of dissociation. A higher koff goes with a short-lived complex.
